From patent publication US20190031783A1 (AbbVie / Abbott, published 2019) come the findings set out here.

Test [1] has as its target T1, purified recombinant human DLL4 extracellular domain (ECD) (human, UniProt Q9NR61 27-529).
T1 construct: extracellular domain; also called human DLL4529; huDLL4
The test can be described thus: SPR (Biacore), DVD captured via anti-human Fc, DLL4 ECD injected, 25 C. The procedure:
For DLL4 binding kinetic measurements the assay buffer was HBS-EPB: 10 mM Hepes, pH7.5, 150 mM NaCl, 3 mM EDTA, 0.005% Tween 20, 0.1 mg/ml BSA (Sigma A7906). For VEGF binding kinetic measurements the assay buffer was HBS-EP+(3N01B): 10 mM Hepes, pH7.5, 300 mM NaCl, 3 mM EDTA, 0.05% Tween 20, 0.1 mg/ml BSA (Sigma A7906). For example, approximately 9000 RU of goat anti-human Fc specific polyclonal antibody (Thermo Fisher Scientific Inc., Rockford, Ill.) diluted in 10 mM sodium acetate (pH 4.5) is directly immobilized across a CM5 research grade biosensor chip using a standard amine coupling kit according to manufacturer's instructions and procedures at 25 ug/ml. Unreacted moieties on the biosensor surface are blocked with ethanolamine. For kinetic analysis, rate equations derived from the 1:1 Langmuir binding model are fitted simultaneously to multiple antigen injections (using global fit analysis) with the use of Scrubber 2 (BioLogic Software), Biacore Biaevaluation 4.0.1 software or Biacore T100 Evaluation software. Purified antibodies are diluted in running buffer for capture across goat anti-human Fc reaction surfaces. Antibodies to be captured as a ligand (1 ug/ml) are injected over reaction matrices at a flow rate of 10 ul/min. During the assay, all measurements are referenced against the capture surface alone (i.e. with no captured antibody). […] The equilibrium dissociation constant KD (M) of the reaction between antibodies and the target antigen is then calculated from the kinetic rate constants by the following formula: KD=Koff/Kₒₙ. Binding is recorded as a function of time and kinetic rate constants are calculated.
On the technique in general: In SPR one partner is held on a chip, and binding of the other changes the refractive index at the surface.

Test [2] addresses T1, purified recombinant human DLL4 …. The test can be described thus: Notch competition ELISA: inhibition of biotin DLL4 ECD binding to coated human Notch-1. The procedure:
Plates were then washed 3× with wash buffer (PBS, 0.05% Tween-20) and blocked with 200 μl/well blocking buffer (D-PBS, 1% BSA, 1 mM CaCl₂, 0.05% Tween-20) for 1 hour at 25° C. […] Assay plates were washed after blocking, and incubated with DLL4/antibody mixtures (100 μl/well, 1 hour at 25° C. with shaking). Plates were washed again and 100 μl/well of streptavidin conjugated with HRP (Fitzgerald #65R-S104PHRPx, diluted 1:5,000 in blocking buffer) was added for 1 hour at 25° C. with shaking. After a final wash, plates were developed using 100 μl/well substrate (TMB Sigma #T8665), and the reaction was stopped using 100 μl/well 1N HCl, and the absorbance was read at 450 nm. Data was analyzed using Graphpad Prism software and IC₅₀ values were reported as the concentration of antibody required to achieve 50% reduction of DLL4 binding to Notch1.

B1: Av-GS10-h1A11.1 (bispecific antibody, human IgG1)
VH: EVQLVESGGGLVQPGGSLRLSCAASGYTFTNYGMNWVRQAPGKGLEWVGWINTYTGEPTYAADFKRRFTFSLDTSKSTAYLQMNSLRAEDTAVYYCAKYPHYYGSSHWYFDVWGQGTLVTVSSGGGGSGGGGSEVQLVESGGGLVQPGGSLRLSCAASGFTFSNFPMAWVRQAPGKGLEWVATISSSDGTTYYRDSVKGRFTISRDNAKNSLYLQMNSLRAEDTAVYYCARGYYNSPFAYWGQGTLVTVSS
VL: DIQMTQSPSSLSASVGDRVTITCSASQDISNYLNWYQQKPGKAPKVLIYFTSSLHSGVPSRFSGSGSGTDFTLTISSLQPEDFATYYCQQYSTVPWTFGQGTKVEIKRGGSGGGGSGDIQMTQSPSSLSASVGDRVTITCRASEDIYSNLAWYQQKPGKAPKLLIYDTNNLADGVPSRFSGSGSGTDFTLTISSLQPEDFATYYCQQYNNYPPTFGQGTKLEIKR
notes: DVD-Ig
Broadly, the Kd is the free concentration of one partner at which half of the binding sites on the other are occupied at equilibrium, for simple one-to-one binding. A word on the IC50: it is the midpoint of a concentration-inhibition curve. Consider B1, for which the Kd in test [1] was 29 nM. The IC50 in test [2] came to 1.5 nM.

B2: h1A11.1-GS10-Av (bispecific antibody, human IgG1)
VH: EVQLVESGGGLVQPGGSLRLSCAASGFTFSNFPMAWVRQAPGKGLEWVATISSSDGTTYYRDSVKGRFTISRDNAKNSLYLQMNSLRAEDTAVYYCARGYYNSPFAYWGQGTLVTVSSGGGGSGGGGSEVQLVESGGGLVQPGGSLRLSCAASGYTFTNYGMNWVRQAPGKGLEWVGWINTYTGEPTYAADFKRRFTFSLDTSKSTAYLQMNSLRAEDTAVYYCAKYPHYYGSSHWYFDVWGQGTLVTVSS
VL: DIQMTQSPSSLSASVGDRVTITCRASEDIYSNLAWYQQKPGKAPKLLIYDTNNLADGVPSRFSGSGSGTDFTLTISSLQPEDFATYYCQQYNNYPPTFGQGTKLEIKRGGSGGGGSGDIQMTQSPSSLSASVGDRVTITCSASQDISNYLNWYQQKPGKAPKVLIYFTSSLHSGVPSRFSGSGSGTDFTLTISSLQPEDFATYYCQQYSTVPWTFGQGTKVEIKR
notes: DVD-Ig; also called h1A11.GS10-Av
With B2, the Kd in test [1] came out at 9.3 nM. For the same molecule, the IC50 in test [2] is 0.65 nM.

B3: Av-GS14-h1A11.1 (bispecific antibody, human IgG1)
VH: EVQLVESGGGLVQPGGSLRLSCAASGYTFTNYGMNWVRQAPGKGLEWVGWINTYTGEPTYAADFKRRFTFSLDTSKSTAYLQMNSLRAEDTAVYYCAKYPHYYGSSHWYFDVWGQGTLVTVSSGGGGSGGGGSGGGGEVQLVESGGGLVQPGGSLRLSCAASGFTFSNFPMAWVRQAPGKGLEWVATISSSDGTTYYRDSVKGRFTISRDNAKNSLYLQMNSLRAEDTAVYYCARGYYNSPFAYWGQGTLVTVSS
VL: DIQMTQSPSSLSASVGDRVTITCSASQDISNYLNWYQQKPGKAPKVLIYFTSSLHSGVPSRFSGSGSGTDFTLTISSLQPEDFATYYCQQYSTVPWTFGQGTKVEIKRGGSGGGGSGGGSDIQMTQSPSSLSASVGDRVTITCRASEDIYSNLAWYQQKPGKAPKLLIYDTNNLADGVPSRFSGSGSGTDFTLTISSLQPEDFATYYCQQYNNYPPTFGQGTKLEIKR
notes: DVD-Ig
In the case of B3, the Kd in test [1] was found to be 34 nM. Also, the IC50 in test [2] was determined as 1.54 nM.

B4: Av-GS6-h1A11.1 (bispecific antibody, human IgG1)
VH: EVQLVESGGGLVQPGGSLRLSCAASGYTFTNYGMNWVRQAPGKGLEWVGWINTYTGEPTYAADFKRRFTFSLDTSKSTAYLQMNSLRAEDTAVYYCAKYPHYYGSSHWYFDVWGQGTLVTVSSGGGGSGEVQLVESGGGLVQPGGSLRLSCAASGFTFSNFPMAWVRQAPGKGLEWVATISSSDGTTYYRDSVKGRFTISRDNAKNSLYLQMNSLRAEDTAVYYCARGYYNSPFAYWGQGTLVTVSS
VL: DIQMTQSPSSLSASVGDRVTITCSASQDISNYLNWYQQKPGKAPKVLIYFTSSLHSGVPSRFSGSGSGTDFTLTISSLQPEDFATYYCQQYSTVPWTFGQGTKVEIKRGGSGGDIQMTQSPSSLSASVGDRVTITCRASEDIYSNLAWYQQKPGKAPKLLIYDTNNLADGVPSRFSGSGSGTDFTLTISSLQPEDFATYYCQQYNNYPPTFGQGTKLEIKR
notes: DVD-Ig
In the case of B4, the Kd in test [1] is 50 nM. In addition, the IC50 in test [2] was 3.41 nM.

B5: Av-LS-h1A11.1 (bispecific antibody, human IgG1)
VH: EVQLVESGGGLVQPGGSLRLSCAASGYTFTNYGMNWVRQAPGKGLEWVGWINTYTGEPTYAADFKRRFTFSLDTSKSTAYLQMNSLRAEDTAVYYCAKYPHYYGSSHWYFDVWGQGTLVTVSSASTKGPSVFPLAPEVQLVESGGGLVQPGGSLRLSCAASGFTFSNFPMAWVRQAPGKGLEWVATISSSDGTTYYRDSVKGRFTISRDNAKNSLYLQMNSLRAEDTAVYYCARGYYNSPFAYWGQGTLVTVSS
VL: DIQMTQSPSSLSASVGDRVTITCSASQDISNYLNWYQQKPGKAPKVLIYFTSSLHSGVPSRFSGSGSGTDFTLTISSLQPEDFATYYCQQYSTVPWTFGQGTKVEIKRTVAAPDIQMTQSPSSLSASVGDRVTITCRASEDIYSNLAWYQQKPGKAPKLLIYDTNNLADGVPSRFSGSGSGTDFTLTISSLQPEDFATYYCQQYNNYPPTFGQGTKLEIKR
notes: DVD-Ig
As for B5, the IC50 in test [2] was found to be 2.77 nM.

B6: Av-SL-h1A11.1 (bispecific antibody, human IgG1)
VH: EVQLVESGGGLVQPGGSLRLSCAASGYTFTNYGMNWVRQAPGKGLEWVGWINTYTGEPTYAADFKRRFTFSLDTSKSTAYLQMNSLRAEDTAVYYCAKYPHYYGSSHWYFDVWGQGTLVTVSSASTKGPEVQLVESGGGLVQPGGSLRLSCAASGFTFSNFPMAWVRQAPGKGLEWVATISSSDGTTYYRDSVKGRFTISRDNAKNSLYLQMNSLRAEDTAVYYCARGYYNSPFAYWGQGTLVTVSS
VL: DIQMTQSPSSLSASVGDRVTITCSASQDISNYLNWYQQKPGKAPKVLIYFTSSLHSGVPSRFSGSGSGTDFTLTISSLQPEDFATYYCQQYSTVPWTFGQGTKVEIKRTVAAPSVFIFPPDIQMTQSPSSLSASVGDRVTITCRASEDIYSNLAWYQQKPGKAPKLLIYDTNNLADGVPSRFSGSGSGTDFTLTISSLQPEDFATYYCQQYNNYPPTFGQGTKLEIKR
notes: DVD-Ig
As to B6, the IC50 in test [2] amounted to 7.38 nM.

B7: Av-SS-h1A11.1 (bispecific antibody, human IgG1)
VH: EVQLVESGGGLVQPGGSLRLSCAASGYTFTNYGMNWVRQAPGKGLEWVGWINTYTGEPTYAADFKRRFTFSLDTSKSTAYLQMNSLRAEDTAVYYCAKYPHYYGSSHWYFDVWGQGTLVTVSSASTKGPEVQLVESGGGLVQPGGSLRLSCAASGFTFSNFPMAWVRQAPGKGLEWVATISSSDGTTYYRDSVKGRFTISRDNAKNSLYLQMNSLRAEDTAVYYCARGYYNSPFAYWGQGTLVTVSS
VL: DIQMTQSPSSLSASVGDRVTITCSASQDISNYLNWYQQKPGKAPKVLIYFTSSLHSGVPSRFSGSGSGTDFTLTISSLQPEDFATYYCQQYSTVPWTFGQGTKVEIKRTVAAPDIQMTQSPSSLSASVGDRVTITCRASEDIYSNLAWYQQKPGKAPKLLIYDTNNLADGVPSRFSGSGSGTDFTLTISSLQPEDFATYYCQQYNNYPPTFGQGTKLEIKR
notes: DVD-Ig
For the molecule B7, in test [2], the IC50 was 3500 nM.

B8: h1A11.1-GS14-Av (bispecific antibody, human IgG1)
VH: EVQLVESGGGLVQPGGSLRLSCAASGFTFSNFPMAWVRQAPGKGLEWVATISSSDGTTYYRDSVKGRFTISRDNAKNSLYLQMNSLRAEDTAVYYCARGYYNSPFAYWGQGTLVTVSSGGGGSGGGGSGGGGEVQLVESGGGLVQPGGSLRLSCAASGYTFTNYGMNWVRQAPGKGLEWVGWINTYTGEPTYAADFKRRFTFSLDTSKSTAYLQMNSLRAEDTAVYYCAKYPHYYGSSHWYFDVWGQGTLVTVSS
VL: DIQMTQSPSSLSASVGDRVTITCRASEDIYSNLAWYQQKPGKAPKLLIYDTNNLADGVPSRFSGSGSGTDFTLTISSLQPEDFATYYCQQYNNYPPTFGQGTKLEIKRGGSGGGGSGGGGSDIQMTQSPSSLSASVGDRVTITCSASQDISNYLNWYQQKPGKAPKVLIYFTSSLHSGVPSRFSGSGSGTDFTLTISSLQPEDFATYYCQQYSTVPWTFGQGTKVEIKR
notes: DVD-Ig
Take B8: in test [1], the Kd worked out at 9.7 nM. In addition, in test [2], the IC50 is 0.68 nM.

B9: Av-LL-h1A11.1 (bispecific antibody, human IgG1)
VH: EVQLVESGGGLVQPGGSLRLSCAASGYTFTNYGMNWVRQAPGKGLEWVGWINTYTGEPTYAADFKRRFTFSLDTSKSTAYLQMNSLRAEDTAVYYCAKYPHYYGSSHWYFDVWGQGTLVTVSSASTKGPSVFPLAPEVQLVESGGGLVQPGGSLRLSCAASGFTFSNFPMAWVRQAPGKGLEWVATISSSDGTTYYRDSVKGRFTISRDNAKNSLYLQMNSLRAEDTAVYYCARGYYNSPFAYWGQGTLVTVSS
VL: DIQMTQSPSSLSASVGDRVTITCSASQDISNYLNWYQQKPGKAPKVLIYFTSSLHSGVPSRFSGSGSGTDFTLTISSLQPEDFATYYCQQYSTVPWTFGQGTKVEIKRTVAAPSVFIFPPDIQMTQSPSSLSASVGDRVTITCRASEDIYSNLAWYQQKPGKAPKLLIYDTNNLADGVPSRFSGSGSGTDFTLTISSLQPEDFATYYCQQYNNYPPTFGQGTKLEIKR
notes: DVD-Ig
B9: the IC50 in test [2] came to 2.43 nM.
